Experimental data from patent EP4786492A1.
One block for each binder: values may come before it.

Tests used:
[1] = molecular target: mouse DLL3 on CHO-K1-mDLL3 cells (mouse) (UniProt O88516); experiment: FACS, CHO-K1-mDLL3 cells, 0.00128 nM antibody
[2] = molecular target: monkey DLL3 on CHO-K1-cyno DLL3 cells (cynomolgus monkey); experiment: FACS, CHO-K1-cyno DLL3 cells, 0.0064 nM antibody
[3] = molecular target: mouse DLL3 on CHO-K1-mDLL3 cells (mouse) (UniProt O88516); experiment: FACS, CHO-K1-mDLL3 cells, 0.8 nM antibody
[4] = molecular target: monkey DLL3 on CHO-K1-cyno DLL3 cells (cynomolgus monkey); experiment: FACS, CHO-K1-cyno DLL3 cells, 0.16 nM antibody
[5] = molecular target: monkey DLL3 on CHO-K1-cyno DLL3 cells (cynomolgus monkey); experiment: FACS, CHO-K1-cyno DLL3 cells, 20 nM antibody
[6] = molecular target: human DLL3 protein expressed on CHO-K1 recombinant cells (human DLL3 extracellular segment fused to EpCAM transmembrane and intracellular regions) (human) (UniProt Q9NYJ7); experiment: FACS, CHO-K1 hDLL3 cells, 20 nM antibody
Chain of human DLL3 protein expressed on CHO-K1 recombinant cells (human DLL3 extracellular segment fused to EpCAM transmembrane and intracellular regions) (human) (Q9NYJ7 other isoform, or with tags, fused parts or gaps limits assumed): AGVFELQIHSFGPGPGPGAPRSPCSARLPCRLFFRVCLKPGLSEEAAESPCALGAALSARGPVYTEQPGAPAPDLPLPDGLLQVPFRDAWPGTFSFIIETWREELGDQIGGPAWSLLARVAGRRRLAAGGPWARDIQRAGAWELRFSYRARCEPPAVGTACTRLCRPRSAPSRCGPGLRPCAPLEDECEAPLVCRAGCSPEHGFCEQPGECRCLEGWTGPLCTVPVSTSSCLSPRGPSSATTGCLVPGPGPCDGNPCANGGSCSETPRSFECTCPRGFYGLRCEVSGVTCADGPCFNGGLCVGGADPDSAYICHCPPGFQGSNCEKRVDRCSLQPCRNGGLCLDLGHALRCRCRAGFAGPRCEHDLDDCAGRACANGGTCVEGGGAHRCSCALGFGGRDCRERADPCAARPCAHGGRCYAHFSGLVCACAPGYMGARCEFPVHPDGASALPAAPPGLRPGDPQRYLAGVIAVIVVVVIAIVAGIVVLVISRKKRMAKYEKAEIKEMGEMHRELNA

[7] = molecular target: human DLL3 protein expressed on CHO-K1 recombinant cells (human DLL3 extracellular segment fused to EpCAM transmembrane and intracellular regions) (human) (UniProt Q9NYJ7); experiment: FACS, CHO-K1 hDLL3 cells, 100 nM antibody
[8] = molecular target: mouse DLL3 on CHO-K1-mDLL3 cells (mouse) (UniProt O88516); experiment: FACS, CHO-K1-mDLL3 cells, 4 nM antibody
[9] = molecular target: human DLL1 protein (Acro, Cat. No. DL1-H52H8) (human) (UniProt O00548); experiment: ELISA, coated hDLL1; maximum over 0.1, 1, 10, 100 nM antibody
Chain of human DLL1 protein (Acro, Cat. No. DL1-H52H8) (human) (O00548 18-540 limits assumed): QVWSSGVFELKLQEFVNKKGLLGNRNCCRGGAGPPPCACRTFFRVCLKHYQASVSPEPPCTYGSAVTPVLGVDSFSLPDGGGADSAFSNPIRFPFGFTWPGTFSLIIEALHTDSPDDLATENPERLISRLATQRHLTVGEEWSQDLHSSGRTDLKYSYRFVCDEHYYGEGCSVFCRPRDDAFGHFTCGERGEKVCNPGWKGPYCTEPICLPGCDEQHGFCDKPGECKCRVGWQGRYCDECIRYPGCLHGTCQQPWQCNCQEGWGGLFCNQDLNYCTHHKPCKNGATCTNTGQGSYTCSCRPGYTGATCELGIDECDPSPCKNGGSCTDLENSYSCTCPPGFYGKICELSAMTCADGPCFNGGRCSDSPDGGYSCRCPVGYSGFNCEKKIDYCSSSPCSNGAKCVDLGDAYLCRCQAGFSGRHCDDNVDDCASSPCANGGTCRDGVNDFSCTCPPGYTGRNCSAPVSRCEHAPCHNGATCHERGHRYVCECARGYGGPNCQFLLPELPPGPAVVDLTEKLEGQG

[10] = molecular target: monkey DLL3 on CHO-K1-cyno DLL3 cells (cynomolgus monkey); experiment: FACS, CHO-K1-cyno DLL3 cells, 0.00128 nM antibody
[11] = molecular target: human DLL3 protein expressed on CHO-K1 recombinant cells (human DLL3 extracellular segment fused to EpCAM transmembrane and intracellular regions) (human) (UniProt Q9NYJ7); experiment: FACS, CHO-K1 hDLL3 cells, 0.032 nM antibody
[12] = molecular target: human DLL3 protein expressed on CHO-K1 recombinant cells (human DLL3 extracellular segment fused to EpCAM transmembrane and intracellular regions) (human) (UniProt Q9NYJ7); experiment: FACS, CHO-K1 hDLL3 cells, 0.00128 nM antibody
[13] = molecular target: mouse DLL3 on CHO-K1-mDLL3 cells (mouse) (UniProt O88516); experiment: FACS, CHO-K1-mDLL3 cells, 0.032 nM antibody
[14] = molecular target: human DLL3 protein expressed on CHO-K1 recombinant cells (human DLL3 extracellular segment fused to EpCAM transmembrane and intracellular regions) (human) (UniProt Q9NYJ7); experiment: FACS, CHO-K1 hDLL3 cells, 0.8 nM antibody
[15] = molecular target: human DLL3 protein expressed on CHO-K1 recombinant cells (human DLL3 extracellular segment fused to EpCAM transmembrane and intracellular regions) (human) (UniProt Q9NYJ7); experiment: FACS, CHO-K1 hDLL3 cells, 0.16 nM antibody
[16] = molecular target: mouse DLL3 on CHO-K1-mDLL3 cells (mouse) (UniProt O88516); experiment: FACS, CHO-K1-mDLL3 cells, 20 nM antibody
[17] = molecular target: human DLL4 protein (Acro, Cat. No. DL4-H5227) (human) (UniProt Q9NR61); experiment: ELISA, coated hDLL4; maximum over 0.1, 1, 10, 100 nM antibody
Chain of human DLL4 protein (Acro, Cat. No. DL4-H5227) (human) (Q9NR61 27-524 limits assumed): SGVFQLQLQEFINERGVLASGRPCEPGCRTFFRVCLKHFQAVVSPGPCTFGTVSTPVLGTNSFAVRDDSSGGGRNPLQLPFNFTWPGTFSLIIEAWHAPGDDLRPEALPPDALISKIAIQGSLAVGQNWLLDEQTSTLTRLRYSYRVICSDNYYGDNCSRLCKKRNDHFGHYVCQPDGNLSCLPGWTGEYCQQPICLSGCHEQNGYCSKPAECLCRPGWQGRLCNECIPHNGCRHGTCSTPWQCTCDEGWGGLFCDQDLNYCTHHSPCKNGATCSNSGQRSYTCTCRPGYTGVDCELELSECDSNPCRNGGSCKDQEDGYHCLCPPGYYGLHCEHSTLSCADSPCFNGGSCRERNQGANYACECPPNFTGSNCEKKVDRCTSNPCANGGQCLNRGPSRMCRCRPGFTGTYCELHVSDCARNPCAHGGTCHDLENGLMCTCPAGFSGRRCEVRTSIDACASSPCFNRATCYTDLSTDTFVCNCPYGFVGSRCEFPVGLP

[18] = molecular target: mouse DLL3 on CHO-K1-mDLL3 cells (mouse) (UniProt O88516); experiment: FACS, CHO-K1-mDLL3 cells, 100 nM antibody
[19] = molecular target: human DLL3 protein expressed on CHO-K1 recombinant cells (human DLL3 extracellular segment fused to EpCAM transmembrane and intracellular regions) (human) (UniProt Q9NYJ7); experiment: FACS, CHO-K1 hDLL3 cells, 0.0064 nM antibody
[20] = molecular target: human DLL3 protein expressed on CHO-K1 recombinant cells (human DLL3 extracellular segment fused to EpCAM transmembrane and intracellular regions) (human) (UniProt Q9NYJ7); experiment: FACS, CHO-K1 hDLL3 cells, 4 nM antibody
[21] = molecular target: human DLL3 protein (extracellular segment, His tag) (human) (UniProt Q9NYJ7); experiment: SPR (Biacore 8K), antibody captured on Protein A chip, DLL3 antigen in solution, 1:1 Langmuir fit
Chain of human DLL3 protein (extracellular segment, His tag) (human) (Q9NYJ7 27-492): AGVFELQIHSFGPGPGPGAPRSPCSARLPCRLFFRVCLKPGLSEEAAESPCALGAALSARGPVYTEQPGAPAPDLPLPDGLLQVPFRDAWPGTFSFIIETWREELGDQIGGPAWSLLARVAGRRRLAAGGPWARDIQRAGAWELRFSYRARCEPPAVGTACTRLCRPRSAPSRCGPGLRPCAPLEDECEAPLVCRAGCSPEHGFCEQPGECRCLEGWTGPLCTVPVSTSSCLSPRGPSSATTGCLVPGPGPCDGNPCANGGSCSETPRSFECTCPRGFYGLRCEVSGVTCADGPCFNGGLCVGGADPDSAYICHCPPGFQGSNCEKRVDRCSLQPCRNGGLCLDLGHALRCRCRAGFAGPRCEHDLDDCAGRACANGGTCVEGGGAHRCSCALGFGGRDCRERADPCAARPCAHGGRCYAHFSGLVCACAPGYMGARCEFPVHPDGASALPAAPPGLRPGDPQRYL

[22] = molecular target: monkey DLL3 on CHO-K1-cyno DLL3 cells (cynomolgus monkey); experiment: FACS, CHO-K1-cyno DLL3 cells, 100 nM antibody
[23] = molecular target: monkey DLL3 on CHO-K1-cyno DLL3 cells (cynomolgus monkey); experiment: FACS, CHO-K1-cyno DLL3 cells, 0.8 nM antibody
[24] = molecular target: monkey DLL3 on CHO-K1-cyno DLL3 cells (cynomolgus monkey); experiment: FACS, CHO-K1-cyno DLL3 cells, 0.032 nM antibody
[25] = molecular target: mouse DLL3 on CHO-K1-mDLL3 cells (mouse) (UniProt O88516); experiment: FACS, CHO-K1-mDLL3 cells, 0.16 nM antibody
[26] = molecular target: human delta-like ligand 3 (DLL3) on SHP77 cells (human) (UniProt Q9NYJ7); experiment: FACS on SHP77 cells
Chain of human delta-like ligand 3 (DLL3) on SHP77 cells (human) (Q9NYJ7 27-618, stated change not applied): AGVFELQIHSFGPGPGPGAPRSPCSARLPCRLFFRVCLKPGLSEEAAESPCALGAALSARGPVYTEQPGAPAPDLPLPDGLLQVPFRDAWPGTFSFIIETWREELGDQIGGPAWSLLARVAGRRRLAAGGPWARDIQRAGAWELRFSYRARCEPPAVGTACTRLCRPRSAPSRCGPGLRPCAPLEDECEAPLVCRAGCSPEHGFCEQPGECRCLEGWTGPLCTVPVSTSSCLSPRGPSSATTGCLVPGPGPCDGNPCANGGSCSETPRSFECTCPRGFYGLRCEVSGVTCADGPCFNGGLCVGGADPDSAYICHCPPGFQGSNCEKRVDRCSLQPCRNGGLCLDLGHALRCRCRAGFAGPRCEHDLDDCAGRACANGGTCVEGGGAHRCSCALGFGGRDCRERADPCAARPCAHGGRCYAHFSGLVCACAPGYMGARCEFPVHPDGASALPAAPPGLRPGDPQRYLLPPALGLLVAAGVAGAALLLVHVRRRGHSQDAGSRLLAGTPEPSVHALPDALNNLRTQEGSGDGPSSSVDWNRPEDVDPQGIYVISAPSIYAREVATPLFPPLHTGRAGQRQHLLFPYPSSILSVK

[27] = molecular target: mouse DLL3 on CHO-K1-mDLL3 cells (mouse) (UniProt O88516); experiment: FACS, CHO-K1-mDLL3 cells, 0.0064 nM antibody
[28] = molecular target: monkey DLL3 on CHO-K1-cyno DLL3 cells (cynomolgus monkey); experiment: FACS, CHO-K1-cyno DLL3 cells, 4 nM antibody
[29] = molecular target: DLL3 endogenously expressed on NCI-H82 cells (UniProt Q9NYJ7); experiment: FACS on NCI-H82 cells; antibody 0.032 nM
Chain of DLL3 endogenously expressed on NCI-H82 cells (Q9NYJ7 27-618): as the sequence (Q9NYJ7 27-618, stated change not applied) above

[30] = molecular target: DLL3 endogenously expressed on NCI-H82 cells (UniProt Q9NYJ7); experiment: FACS on NCI-H82 cells; antibody 0.8 nM
[31] = molecular target: DLL3 endogenously expressed on NCI-H82 cells (UniProt Q9NYJ7); experiment: FACS on NCI-H82 cells; antibody 4 nM
[32] = molecular target: DLL3 endogenously expressed on NCI-H82 cells (UniProt Q9NYJ7); experiment: FACS on NCI-H82 cells; antibody 0.16 nM
[33] = molecular target: DLL3 endogenously expressed on NCI-H82 cells (UniProt Q9NYJ7); experiment: FACS on NCI-H82 cells; antibody 0.00128 nM
[34] = molecular target: DLL3 endogenously expressed on NCI-H82 cells (UniProt Q9NYJ7); experiment: FACS on NCI-H82 cells; antibody 0.0064 nM
[35] = molecular target: DLL3 endogenously expressed on NCI-H82 cells (UniProt Q9NYJ7); experiment: FACS on NCI-H82 cells; antibody 20 nM
[36] = molecular target: DLL3 endogenously expressed on NCI-H82 cells (UniProt Q9NYJ7); experiment: FACS on NCI-H82 cells; antibody 100 nM

Chain of mouse DLL3 on CHO-K1-mDLL3 cells (mouse) (O88516 other isoform, or with tags, fused parts or gaps limits assumed): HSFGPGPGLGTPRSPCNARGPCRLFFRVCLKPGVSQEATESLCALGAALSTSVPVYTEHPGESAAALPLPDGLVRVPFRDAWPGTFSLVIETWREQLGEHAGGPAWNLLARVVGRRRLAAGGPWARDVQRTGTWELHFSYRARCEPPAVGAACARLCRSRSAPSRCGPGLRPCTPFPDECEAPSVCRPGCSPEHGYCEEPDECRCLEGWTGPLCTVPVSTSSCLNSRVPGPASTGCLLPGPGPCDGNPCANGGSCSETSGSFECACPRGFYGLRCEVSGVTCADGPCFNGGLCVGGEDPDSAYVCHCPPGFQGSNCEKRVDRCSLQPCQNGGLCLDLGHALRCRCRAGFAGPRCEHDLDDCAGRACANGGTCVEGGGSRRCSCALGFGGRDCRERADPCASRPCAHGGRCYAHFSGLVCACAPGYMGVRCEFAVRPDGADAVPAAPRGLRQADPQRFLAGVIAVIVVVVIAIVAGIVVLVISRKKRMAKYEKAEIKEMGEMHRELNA
Chain of monkey DLL3 on CHO-K1-cyno DLL3 cells (cynomolgus monkey) (chain, as listed by the source limits assumed): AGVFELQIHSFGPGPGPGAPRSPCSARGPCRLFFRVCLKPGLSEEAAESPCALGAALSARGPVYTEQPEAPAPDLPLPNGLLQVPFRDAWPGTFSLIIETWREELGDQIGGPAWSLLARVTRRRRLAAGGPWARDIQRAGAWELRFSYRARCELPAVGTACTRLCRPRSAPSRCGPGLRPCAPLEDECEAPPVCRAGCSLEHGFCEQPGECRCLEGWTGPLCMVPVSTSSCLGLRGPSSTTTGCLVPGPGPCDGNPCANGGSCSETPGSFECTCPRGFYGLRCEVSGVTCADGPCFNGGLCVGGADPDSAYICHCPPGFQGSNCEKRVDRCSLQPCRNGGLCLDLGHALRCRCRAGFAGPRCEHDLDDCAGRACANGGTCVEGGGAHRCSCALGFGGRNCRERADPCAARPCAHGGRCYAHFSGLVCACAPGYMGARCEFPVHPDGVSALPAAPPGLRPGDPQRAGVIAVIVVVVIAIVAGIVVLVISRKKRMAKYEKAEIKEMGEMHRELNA

MFI [1]: 99 MFI
MFI [2]: 494 MFI
MFI [3]: 495 MFI
MFI [4]: 3970 MFI
MFI [5]: 9180 MFI
MFI [6]: 14500 MFI
MFI [7]: 15400 MFI
MFI [8]: 577 MFI
Emax of OD450 nm binding value [9]: 0.05 OD450 nm
MFI [10]: 276 MFI
MFI [11]: 1340 MFI
MFI [12]: 243 MFI
MFI [13]: 185 MFI
MFI [14]: 11900 MFI
MFI [15]: 4700 MFI
MFI [16]: 605 MFI
Emax of OD450 nm binding value [17]: 0.06 OD450 nm
MFI [18]: 580 MFI
MFI [19]: 458 MFI
MFI [20]: 13800 MFI
Kd [21]: 0.395 nM
koff [21]: 0.000156 s⁻¹
kon [21]: 394000 M⁻¹ s⁻¹
MFI [22]: 10500 MFI
MFI [23]: 7810 MFI
MFI [24]: 1340 MFI
MFI [25]: 343 MFI
MFI at 0.00128 nM [26]: 199 MFI
MFI at 0.0064 nM [26]: 281 MFI
MFI at 0.032 nM [26]: 528 MFI
MFI at 0.16 nM [26]: 1050 MFI
MFI at 0.8 nM [26]: 1330 MFI
MFI at 4 nM [26]: 1500 MFI
MFI at 20 nM [26]: 1620 MFI
MFI at 100 nM [26]: 1870 MFI
MFI [27]: 118 MFI
MFI [28]: 8510 MFI
B1: Hab006VL4VH2-hFc (scFv, part only; not given: scFv linker and human IgG1 Fc, V domains shown, not shown: another chain or arm of the molecule; a dimerising Fc or GST; small tags and cut ends)
VL: DIVMTQSPDSLAVSLGERATINCRATKSISKYLAWYQQKPGQTNKLLIFSGSTLQSGVPDRFSGSGSGTDFTLTISSLQAEDVAVYYCQQHHEYPYTFGGGTKVEIK
VH: EVQLVQSGAEVKKPGASVKVSCKASGYTFTSYWMHWVRQAPGQRLEWMGVIDPSDSLANYNQEFKGRVTLTVDTSASTAYMELSSLRSEDTAVYYCARDSTVVAPMDYWGQGTTVTVSS

MFI [1]: 117 MFI
MFI [2]: 168 MFI
MFI [3]: 779 MFI
MFI [4]: 1240 MFI
MFI [5]: 6720 MFI
MFI [6]: 10600 MFI
MFI [7]: 11400 MFI
MFI [29]: 213
MFI [8]: 1040 MFI
MFI [30]: 993
Emax of OD450 nm binding value [9]: 0.44 OD450 nm
MFI [10]: 123 MFI
MFI [11]: 294 MFI
MFI [12]: 122 MFI
MFI [13]: 172 MFI
MFI [31]: 1060
MFI [14]: 5070 MFI
MFI [15]: 941 MFI
MFI [32]: 489
MFI [16]: 1150 MFI
Emax of OD450 nm binding value [17]: 0.65 OD450 nm
MFI [33]: 118
MFI [18]: 1450 MFI
MFI [19]: 152 MFI
MFI [34]: 137
MFI [20]: 7920 MFI
MFI [22]: 7590 MFI
MFI [35]: 1200
MFI [23]: 4470 MFI
MFI [24]: 399 MFI
MFI [25]: 339 MFI
MFI at 0.00128 nM [26]: 99 MFI
MFI at 0.0064 nM [26]: 112 MFI
MFI at 0.032 nM [26]: 174 MFI
MFI at 0.16 nM [26]: 385 MFI
MFI at 0.8 nM [26]: 730 MFI
MFI at 4 nM [26]: 762 MFI
MFI at 20 nM [26]: 962 MFI
MFI at 100 nM [26]: 1240 MFI
MFI [27]: 123 MFI
MFI [36]: 1520
MFI [28]: 5910 MFI
B2: Hab015VL4VH1a-hFc (scFv, part only; not given: scFv linker and human IgG1 Fc, V domains shown, not shown: another chain or arm of the molecule; a dimerising Fc or GST; small tags and cut ends)
VL: NIVLTQSPATLSLSPGERATLSCKASENVGTYVSWFQQKPGQSPRLLIYGASNRYTGIPARFSGSGSGTDFTLTISSLEPEDFAVYYCGQFYSFPSTFGGGTKVEIK
VH: EVQLVESGGGLVKPGGSLRLSCAASGITFSNFWMNWVRQAPGKGLEWVGQIRLKSDDYATHYAESVKGRFTISREDSKNTVYLQMNSLKTEDTAVYYCTTGYYFDYWGQGTTVTVSS
